From the DeepSol protein solubility set

assay: soluble on expression in E. coli; label from the status in PepcDB or PDB records

Sequence | soluble on expression in E. coli
MKFSIIVPSYNSEKYIAELLNSLQNQSYDKKDFEVILVDDCSSDNTLNVVEAYKNKLNLIIKQLDTNSGGPGKPRNTALQLAQGEYVFFVDSDDYINKDTLKDVSKFVDQNHADVVLVKMEGVNGRGVPKSMFKETSDAVTLANSRIIYTLSPTKFYRTSLLRDHAIEFPEDLRSAEDQLFTMKAYVNAKRIAVLADKPYYYATKREGEHMSSAYVSPEDFYKVMSLITEEILNSPLENKNEVLGYFIDRHFSFSRTNNFSLKIADDKKEAWMDALGDFIQKVPTVVDELVNDSFKPLLHYARLKDMKHYQMVEESYKNGKFHSYSAQEGTLKIQFDEGEPYFVFKKLVKPDIRMSHFEFNDQGFELELEFISSIINPNHVASMIQLKLLSRNKKEFIYIPLTMNDQTRFKFKADLNDLMPYLIKEKVWDAHLEMRVDNMTIEKRIGNKRVKYPYSKETSTITQYNNQYYRFTPYFTKDFDNLSFYITSNKLNEMLAVEIKDKQTIQLRSLEFNYILSEGMTAVILPHMFTYGYLTSVTTKDTLTYHLSVGEKVKDKDLKKNFKIETPHLVLKYLEHHHHHH | soluble
MGSDKIHHHHHHMKDTNRTHSADAATVEEALAADNHQGIVDSEGATALAMQNTLLTPRFYTTDFDEMDSLDVSSVREDWDTLIAQMKSDPNKGHFKKNEDWDSVDWDGMEPALKREFIDFLVSSCTAEFSGCVLYKEMKRRGNNEDIVTLFQLMARDEARHAGFINDALREAGIAVNLGFLTQKKKYTYFRPKFIYYATYLSEKIGYARYITIFRHLEANPEHRFHPIFKWFREWCNDEFSHGEAFALIMKSDPKFTQKWQNKLWIKFFLTAVYSTMYVRDHQRPVFHAALGVDPDWYAHEVFTKTSEITKQIFPITLDIENPRWQRGLEAMQRANVDLADAKANGKLFKRIGASIRAGAAFVNLFTIPANKHDAPASVRLEPAY | not soluble
MWPLALVIASLTLALSGGVSQESSKVLNTNGTSGFLPGGYTCFPHSQPWQAALLVQGRLLCGGVLVHPKWVLTAAHCLKEGLKVYLGKHALGRVEAGEQVREVVHSIPHPEYRRSPTHLNHDHDIMLLELQSPVQLTGYIQTLPLSHNNRLTPGTTCRVSGWGTTTSPQVNYPKTLQCANIQLRSDEECRQVYPGKITDNMLCAGTKEGGKDSCEGDSGGPLVCNRTLYGIVSWGDFPCGQPDRPGVYTRVSRYVLWIRETIRKYETQQQKWLKGPQ | soluble
MPMNTSKQSNTVKQLITSLDNFEPSRLTIKDFQEGKGVGPKMAFLRYNHPSLGEDTSLMLQTPWITLTSGGIPRYNEQYHKNDKDRAYLRLPLEEGTDFFNKITALDEQFSSDEFKKEKFGKLYKKYSMYPCVKITEQEEGDTRDPLPPSLKLRFSLVWNEEDKDACEINTQVFTSKMEDGKRTRTPVPVSSLKDMESLVRLGAKLRLIVRPVSAWMNPKKEYGIKWKIQKMEVEPSTAGNALMKEFYETDAFIDSDDEEDVELPPSATGKKTSTKTTKEDDEDEDDDDDDDDDDVGEKSEDSDEASDEESDEESDEDSEEDSPDIPVRKSKGKGKSKGLDL | not soluble
MDLNFDLYMNDVVEQARNEIEHAGYQQLTSAEDVDQVLQQKGTSLVMVNSVCGCAGGIARPAAAHALHYDKLPQRLVTVFAGQDKEATQQAREYFEGYAPSSPSFALIKDGKITEMIERHQIEGHDVMDVINQLQALFDKYCEER | not soluble
MSLELTVFSIGDWGEKTECLVNVTTKMGSLESAMNPKFIISVGDNFYQRGVKSVEDAAWTEILEEPFGKLSKHLKVHSCLGDHDWRGSTTAQIDRTNYANNTRWYLPGYWWYEKVTFTSEVSLPSLFEKSGLGEISANNSFHFNSSKTENSTSCEIDCLDEIVDNLNTMVNRNNSWNEDLSYKTSISEYFSEKQVNSTAVFIYIDSWTLTQDPFKKTSISYKYSQLEFIEQTLKAAVFENVDWIILVTHYSIYSSGLHGPHTRLASILMPLIKKYRVDFIISGHDHHSEILVPEDFNSYFQIVGASSKPRTSFGATDENSIFKSNTCSFASFTFSKDIAVSRIFSINSSLFSYFKRSNKFEREGHHHHHH | not soluble
MKVRVKAPCTSANLGVGFDVFGLCLKEPYDVIEVEAIDDKEIIIEVDDKNIPTDPDKNVAGIVAKKMIDDFNIGKGVKITIKKGVKAGSGLGSSAASSAGTAYAINELFKLNLDKLKLVDYASYGELASSGAKHADNVAPAIFGGFTMVTNYEPLEVLHIPIDFKLDILIAIPNISINTKEAREILPKAVGLKDLVNNVGKACGMVYALYNKDKSLFGRYMMSDKVIEPVRGKLIPNYFKIKEEVKDKVYGITISGSGPSIIAFPKEEFIDEVENILRDYYENTIRTEVGKGVEVV | soluble
MTWPARRVLYAIWQDPWMTVSRATYISRMLALVNWATWPDDADTSDTPAACVDGDCSRPNAPGERYPTFRWSDALVRELDAVLLSTEPYRFTEDHADALERQIGKPVLLVDGEMLSWYGSRAVAGARYLRSLAQGFLEHHHHHH | not soluble
MGNMFGSSLASLFFLWATIQQIFPNHLKIAIKEFFLSTIQQISFAKRFSDKFINFFSPYVQINFSEYEDYRVNHAFDPIETYLGAKATDKAKHLRASQVRESKGLVLKRDETKVRDEYEGIRVWWEMETDSAGYKTLKLTFHRRSRDIVTNSYIKYVVEEGKSIDAKNKKMKLFTNNPSSHWGSSKTSFWRYIDFEHPATFETLAMDPKKKEQILNDLAAFNNGKDYYKKIGKAWKRGYLLYGPPGTGKSTMIAAMANLLNYSIYDLELTAIQNNSELRKILTATSNKSIIVIEDIDCSLDLTGKRKKKESNLMIWRKDGDQDNEENKSFVTLSGLLNFIDGIWSACGQERIIVFTTNHLAKLDPALIRRGRMDMHIELSYCTFEAFKTLAKNYLDLDSHPLFSKIESLMKETNIAPADVAENLMKKNRETDADGSLNDLIESLERKKKVQIAQVDEHKEYSNKIVEAFRKLF | soluble
MRKWETFIIDYMNKSKKTFVKTIDIEHHLKTLLKQEYDDDGGYFKYSSTLKNMVEEEKIQPVKARGHNHQTPPVFNEYRLVKKERRTNPTHIKKLMTDYLLFNMTAFYDEAEFEKWKFYIDRVHAFLTQNSDTKNNILKANERSFELFRNEKFLLDKEGTKFLANLGLTLSDLNCRRTYEPFVEYQPNPSKKPKNILIIENRDTFDSIKELMIDGIDTWSRITFDMVIYGEGDKIQRSFYFLEEYELEDYEVYYFGDLDARGIHICSELIKIDNRVKPFIPFYIELLNRYGHEPSTRTIERKLKQTIIDDSLKLFSSFFEGDYIDELKRYTDIIQNVQIYIPQEGLNLVILRKLGERR | not soluble
MAHHHHHHMDSTYKEPSSAAVPTSYAVLSLPSKATMRRKGYNPDEVNYNGGLATHPLATWKTFSLPDGCTYKDAVSAVQTANAKPWGPIKIRLNFSDGRYEQFERVAPSVMDSLQSTTTYSPNDAFKAETLSLSTMRRAQQQPRLRPLVDERGHHLSNKPIPRTFAPEELYKNCPPPVLSQPGYDFTPISYNTFLLNPQDPPHGVRNVQSNFMHSSCDYRPRSYLRPEQATGTSHASRHCHCNEVFQVGDHTMDFACEGTTVDHRNRLVKKDYSPVGTLKANSSIVGRRHARKPRFGCTGVADSQTVAAAVAPAADEETA | soluble
MSLKALARFGKAFGGYKMIHVPQPICGPEDVVTEIKAAAICGADMKHYNVDSGSDEFNSIRGHEFAGCIAQVGEKVKDWKVGQRVVSDNSGHVCGVCPACEQGDFLCCTEKVNLGLDNNTWGGGFSKYCLVPGEILKIHRHALWEIPDGVDYEDAAVLDPICNAYKSIAQQSKFLPGQDVVVIGTGPLGLFSVQMARIMGAVNIVVVGLQEDVAVRFPVAKELGATAVVNGSTEDVVARCQQICGKDNLGLVIECSGANIALKQAIEMLRPNGEVVRVGMGFKPLDFSINDITAWNKSIIGHMAYDSTSWRNAIRLLASGAIKVKPMITHRIGLSQWREGFDAMVDKTAIKVIMTYDFDEGHHHHHH | not soluble
MDVHIDNQVLSGLGTPLLVHLFVPDTVMAELCPNRVPNCEGAWCQTLFSDRTGLTRVCRVFAARGMLPGRPSHRGTFTSVPVYCDEGLPELYNPFHVAALRFYDEGGLVGELQIYYLSLFEGAKRALTDGHLIREASGVQESAAAMQPIPIDPGPPGGAGIEHMPVAAAQVEHPKTYDLKQILLEITQEENRGEQRLGHAGSPALCLGLRLRAGAETKAAAETSVSKHHPALENPSNIRGSAGGEGGGGRAGTGGTVGVGSGALSRVPVSFSKTRRAIRESRALVRGIAHIFSPHALYVVTYPELSAQGRLHRMTAVTHASPATDLAEVSILGAPEREFRFLISVALRISASFREKLAMQAWTAQQEIPVVIPTSYSRIYKNSDLIREAFFTVQTRVSWESCWVKATISNAPKTPDACLWIDSHPLYEEGASAWGKVIDSRPPGGLVGAASQLVALGTDGHCVHLATTSDGQAFLVLPGGFVIKGQLALTPEERGYILARHGIRREQ | not soluble
MSLKSDEVFAKIAKRLESIDPANRQVEHVYKFRITQGGKVVKNWVMDLKNVKLVESDDAAEATLTMEDDIMFAIGTGALPAKEAMAQDKMEVDGQVELIFLLEPFIASLK | soluble
MTVSNNGMAMPSVPPKIDCSEAIQDSPKFRATVAQHAMYFNRLENRLNEMLRHITAMIDFSKNYTNTFYKLTVSVNQLCDESFSGNPLASTTFQGLSEAYAHTVNLFRTYFDHSNVVTFTKLSNFIKIELTKVAESRAHFENMSQSMDDALVKNASISRQKPADATEGRNALTAVGTCFAHTTLDYVANINIAHAHKDHMILDALWTLVRESSAFFSKGHATFDEWTAADNGAIADTIQTFAAKSKLIERKMQDVHSLVPKEMFQHPSGMPIEPDVMMEGYLYKRSSNAFKTWNRRWFQIKDKQLLYSHRSTDLEPATIMEENLRICLVRPAPSNIDRIGCFELVTPTRIHLLQADSESLCQDWMRALQRTILALHEGDSVDVASTSPRNKTTSMSSGVTLTSANAISPLSNAMDVTKGRSVSDPASTYTSANTSSISTAAGFSSSTTAFEQVRRVPGNEVCADCGSPAPKWVSINLGVVLCIECSGAHRSLGVQTSKVRSLCMDSIDNELRDVLLALGNRQVNEIFLAHLPPADSIVPPQINEKSARPAREAWIKAKYVERRFAVAEDTRARSSATNRQEHLKHKTSIGGNSSSNGVNRSSSYADVQDAESGGLLDADPWSADLSVPVPTASKRLSACGSDTNLDAIGSSSIDTKTVEWDSVKEACECGDLLALMTAYAQGFDLNALHNGTTALHIATRNGQTAAVEFLLLNGAKINMLDEKLNTPLHLAAKEGHTLPVCQLLKRGADSNLANVDSKTPLDIAMECTHADIVTLFRVTIMRNDFNADFNNPMDETVEAVISDIARRAATEKEQKKTESLKSTSDI | not soluble
MSLSTIAIFGSYVLSRKDGAQDVLRDHWVLVEGKKIAAVTRDRPRADEVYDRPGRFVLPGLLNLHNHCFSEAVARSHSEDGTGRKNNQSIVYTVLLPLTKRGADILSAEERMAVARLGILQLLKGGATTVMEPFRNSIPEMFDAAEEMGIRFYGAPYLFSTSDAKAGPDGVVQYSGDDGTADMATWDALYQRWNNRGDGRISLAMSPHATDTCGPDLLKACAARARELGVPITTHMAQSRAEVETIGKRYGGRTPAQYLDWLGLLAPDLMAAHCMFSTDDDLKLMAARGMTVLNCPRVFARAGVTAAFSRFAEHGVRTVVGTDGYNMDLLGELNAASLISKITSQRADVANSPELIEANTAVAADVIKRPDLGRIEPGATADLTVVDLTHPHLQPLFDPRRALIALANRANIDQVMVDGRVLVDGGRYLGADEAAITAAGSAAIGKIWDLPEAQAAFNGEGHHHHHH | soluble
